Assay [1] concerns the target E. coli MukB(G67C)-HaloTag (E. coli) (UniProt P22523). In words: cross-linking; in vivo BMOE cysteine cross-linking of E. coli cells in exponential phase, 10 min on ice in PBS; SDS-PAGE and in-gel fluorescence of MukB-HaloTag-TMR.
Assay [2] has the same target. In words: cross-linking; in vivo BMOE combinatorial cysteine cross-linking, cells grown to stationary phase; SDS-PAGE and in-gel fluorescence of MukB-HaloTag-TMR.
Assay [3] concerns the target E. coli MukB(G67C, D1406A)-HaloTag (E. coli) (UniProt P22523). In words: cross-linking; in vivo BMOE cysteine cross-linking of E. coli cells in exponential phase, 10 min on ice in PBS; SDS-PAGE and in-gel fluorescence of MukB-HaloTag-TMR.
Assay [4] has as its target E. coli MukB(G67C, E1407Q)-HaloTag (E. coli) (UniProt P22523). The description is as above.
Assay [5] concerns the target E. coli MukB(G67C, R771C)-HaloTag with natural C730 (E. coli) (UniProt P22523). In words: cross-linking; in vivo BMOE combinatorial cysteine cross-linking, cells grown to stationary phase; SDS-PAGE and in-gel fluorescence of MukB-HaloTag-TMR.
Assay [6] deals with E. coli MukB(R771C)-HaloTag with natural C730 (E. coli) (UniProt P22523). The assay is described as above.

Regarding “E. coli MukB(G67C)-HaloTag (from UniProt P22523 1-1486) (natural protein)”, the cross-linked fraction in assay [1] was 22%. The MukB species cross-linked at the heads in assay [2] was 29%.
For the substance “E. coli MukB(G67C, D1406A)-HaloTag (from UniProt P22523 1-1486) (natural protein)”, the cross-linked fraction in assay [3] was determined as 21%.
The substance “E. coli MukB(G67C, E1407Q)-HaloTag (from UniProt P22523 1-1486) (natural protein)” returned a cross-linked fraction in assay [4] of 30%.
Regarding “E. coli MukB(G67C, R771C)-HaloTag with natural C730 (from UniProt P22523 1-1486) (natural protein)”, the MukB species cross-linked at the heads in assay [5] was 12%.
On to “E. coli MukB(R771C)-HaloTag with natural C730 (from UniProt P22523 1-1486) (natural protein)”, for which the cross-linking efficiency in assay [6] came to 62%.

(Values after PMC8669397.)
